Test results: patent US20120316071A1 (published 2012)

B1: Fab VH1-46_IGHD6-6*01_IGHJ1*01 S102A/S103P/S104F/H111F I51V/N52L/S54T/G56H & L6_IGKJ1*01 S28N/S30D/S31H (Fab, V domains shown)
VH: QVQLVQSGAEVKKPGASVKVSCKASGYTFTSYYMHWVRQAPGQGLEWMGIVLPTGHSTSYAQKFQGRVTMTRDTSTSTVYMELSSLRSEDTAVYYCAREEYAPFSAEYFQFWGQGTLVTVSS
VL: EIVLTQSPATLSLSPGERATLSCRASQNVDHYLAWYQQKPGQAPRLLIYDASNRATGIPARFSGSGSGTDFTLTISSLEPEDFAVYYCQQRSNWPPWTFGQGTKVEIKR
notes: Fab expressed in E. coli: VH joined to CH1 from Plasmid A (His6 and Flag tags), VL joined to kappa CL from Plasmid C; also called H:APFF VLTH & L:NDH
B2: Fab VH1-46_IGHD6-6*01_IGHJ1*01 S102A/S103P/S104F/H111F N52L/S54T/G56H & L6_IGKJ1*01 S28N/S30D/S31H (Fab, V domains shown)
VH: QVQLVQSGAEVKKPGASVKVSCKASGYTFTSYYMHWVRQAPGQGLEWMGIILPTGHSTSYAQKFQGRVTMTRDTSTSTVYMELSSLRSEDTAVYYCAREEYAPFSAEYFQFWGQGTLVTVSS
VL: EIVLTQSPATLSLSPGERATLSCRASQNVDHYLAWYQQKPGQAPRLLIYDASNRATGIPARFSGSGSGTDFTLTISSLEPEDFAVYYCQQRSNWPPWTFGQGTKVEIKR
notes: Fab expressed in E. coli: VH joined to CH1 from Plasmid A (His6 and Flag tags), VL joined to kappa CL from Plasmid C; also called H:APFF LTH & L:NDH
B3: Fab VH1-46_IGHD6-6*01_IGHJ1*01 S102A/S103P/S104F/H111F I51V/N52L/S54T/G56H & L6_IGKJ1*01 S28N/S30D/S31H S52L/A55S (Fab, V domains shown)
VH: QVQLVQSGAEVKKPGASVKVSCKASGYTFTSYYMHWVRQAPGQGLEWMGIVLPTGHSTSYAQKFQGRVTMTRDTSTSTVYMELSSLRSEDTAVYYCAREEYAPFSAEYFQFWGQGTLVTVSS
VL: EIVLTQSPATLSLSPGERATLSCRASQNVDHYLAWYQQKPGQAPRLLIYDALNRSTGIPARFSGSGSGTDFTLTISSLEPEDFAVYYCQQRSNWPPWTFGQGTKVEIKR
notes: Fab expressed in E. coli: VH joined to CH1 from Plasmid A (His6 and Flag tags), VL joined to kappa CL from Plasmid C; also called H:APFF VLTH & L:NDH LS
B4: Fab VH1-46_IGHD6-6*01_IGHJ1*01 S102A/S103P/S104F/H111F I51V/N52L/S54T/G56H & L6_IGKJ1*01 S28N/S30D/S31H S52L/A55G (Fab, V domains shown)
VH: QVQLVQSGAEVKKPGASVKVSCKASGYTFTSYYMHWVRQAPGQGLEWMGIVLPTGHSTSYAQKFQGRVTMTRDTSTSTVYMELSSLRSEDTAVYYCAREEYAPFSAEYFQFWGQGTLVTVSS
VL: EIVLTQSPATLSLSPGERATLSCRASQNVDHYLAWYQQKPGQAPRLLIYDALNRGTGIPARFSGSGSGTDFTLTISSLEPEDFAVYYCQQRSNWPPWTFGQGTKVEIKR
notes: Fab expressed in E. coli: VH joined to CH1 from Plasmid A (His6 and Flag tags), VL joined to kappa CL from Plasmid C; also called H:APFF VLTH & L:NDH LG
B5: Fab VH1-46_IGHD6-6*01_IGHJ1*01 S102A/S103P/S104F/H111F N52L/S54T/G56H & L6_IGKJ1*01 S28N/S30D/S31H S52L/A55S (Fab, V domains shown)
VH: QVQLVQSGAEVKKPGASVKVSCKASGYTFTSYYMHWVRQAPGQGLEWMGIILPTGHSTSYAQKFQGRVTMTRDTSTSTVYMELSSLRSEDTAVYYCAREEYAPFSAEYFQFWGQGTLVTVSS
VL: EIVLTQSPATLSLSPGERATLSCRASQNVDHYLAWYQQKPGQAPRLLIYDALNRSTGIPARFSGSGSGTDFTLTISSLEPEDFAVYYCQQRSNWPPWTFGQGTKVEIKR
notes: Fab expressed in E. coli: VH joined to CH1 from Plasmid A (His6 and Flag tags), VL joined to kappa CL from Plasmid C; also called H:APFF LTH & L:NDH LS
B6: Fab VH5-51_IGHD5-18*01>3_IGHJ4*01 G100D & V3-4_IGLJ1*01 (Fab, V domains shown)
VH: EVQLVQSGAEVKKPGESLKISCKGSGYSFTSYWIGWVRQMPGKGLEWMGIIYPGDSDTRYSPSFQGQVTISADKSISTAYLQWSSLKASDTAMYYCARRDYSYGYDYFDYWGQGTLVTVSS
VL: QTVVTQEPSFSVSPGGTVTLTCGLSSGSVSTSYYPSWYQQTPGQAPRTLIYSTNTRSSGVPDRFSGSILGNKAALTITGAQADDESDYYCVLYMGSGISYVFGTGTKVTVL
notes: Fab; VH-CH1 (His6/Flag, Plasmid A) and VL-lambda CL (Plasmid E)
B7: Fab VH5-51_IGHD5-18*01>3_IGHJ4*01 G104K & V3-4_IGLJ1*01 (Fab, V domains shown)
VH: EVQLVQSGAEVKKPGESLKISCKGSGYSFTSYWIGWVRQMPGKGLEWMGIIYPGDSDTRYSPSFQGQVTISADKSISTAYLQWSSLKASDTAMYYCARRGYSYKYDYFDYWGQGTLVTVSS
VL: QTVVTQEPSFSVSPGGTVTLTCGLSSGSVSTSYYPSWYQQTPGQAPRTLIYSTNTRSSGVPDRFSGSILGNKAALTITGAQADDESDYYCVLYMGSGISYVFGTGTKVTVL
notes: as for B6
B8: Fab VH5-51_IGHD5-18*01>3_IGHJ4*01 G100T & V3-4_IGLJ1*01 (Fab, V domains shown)
VH: EVQLVQSGAEVKKPGESLKISCKGSGYSFTSYWIGWVRQMPGKGLEWMGIIYPGDSDTRYSPSFQGQVTISADKSISTAYLQWSSLKASDTAMYYCARRTYSYGYDYFDYWGQGTLVTVSS
VL: QTVVTQEPSFSVSPGGTVTLTCGLSSGSVSTSYYPSWYQQTPGQAPRTLIYSTNTRSSGVPDRFSGSILGNKAALTITGAQADDESDYYCVLYMGSGISYVFGTGTKVTVL
notes: as for B6
B9: Fab VH5-51_IGHD5-18*01>3_IGHJ4*01 G100K/G104T (H:KT) & V3-4_IGLJ1*01 G97A (Fab, V domains shown)
VH: EVQLVQSGAEVKKPGESLKISCKGSGYSFTSYWIGWVRQMPGKGLEWMGIIYPGDSDTRYSPSFQGQVTISADKSISTAYLQWSSLKASDTAMYYCARRKYSYTYDYFDYWGQGTLVTVSS
VL: QTVVTQEPSFSVSPGGTVTLTCGLSSGSVSTSYYPSWYQQTPGQAPRTLIYSTNTRSSGVPDRFSGSILGNKAALTITGAQADDESDYYCVLYMGSAISYVFGTGTKVTVL
notes: Fab; Expressed from Plasmid A (CH1, His6 and Flag tags) and Plasmid E (lambda CL); also called KT & G97A
B10: Fab VH5-51_IGHD5-18*01>3_IGHJ4*01 G104S & V3-4_IGLJ1*01 (Fab, V domains shown)
VH: EVQLVQSGAEVKKPGESLKISCKGSGYSFTSYWIGWVRQMPGKGLEWMGIIYPGDSDTRYSPSFQGQVTISADKSISTAYLQWSSLKASDTAMYYCARRGYSYSYDYFDYWGQGTLVTVSS
VL: QTVVTQEPSFSVSPGGTVTLTCGLSSGSVSTSYYPSWYQQTPGQAPRTLIYSTNTRSSGVPDRFSGSILGNKAALTITGAQADDESDYYCVLYMGSGISYVFGTGTKVTVL
notes: as for B6
B11: Fab VH5-51_IGHD5-18*01>3_IGHJ4*01 G100K & V3-4_IGLJ1*01 (Fab, V domains shown)
VH: EVQLVQSGAEVKKPGESLKISCKGSGYSFTSYWIGWVRQMPGKGLEWMGIIYPGDSDTRYSPSFQGQVTISADKSISTAYLQWSSLKASDTAMYYCARRKYSYGYDYFDYWGQGTLVTVSS
VL: QTVVTQEPSFSVSPGGTVTLTCGLSSGSVSTSYYPSWYQQTPGQAPRTLIYSTNTRSSGVPDRFSGSILGNKAALTITGAQADDESDYYCVLYMGSGISYVFGTGTKVTVL
notes: as for B6
B12: Fab VH5-51_IGHD5-18*01>3_IGHJ4*01 G100R & V3-4_IGLJ1*01 (Fab, V domains shown)
VH: EVQLVQSGAEVKKPGESLKISCKGSGYSFTSYWIGWVRQMPGKGLEWMGIIYPGDSDTRYSPSFQGQVTISADKSISTAYLQWSSLKASDTAMYYCARRRYSYGYDYFDYWGQGTLVTVSS
VL: QTVVTQEPSFSVSPGGTVTLTCGLSSGSVSTSYYPSWYQQTPGQAPRTLIYSTNTRSSGVPDRFSGSILGNKAALTITGAQADDESDYYCVLYMGSGISYVFGTGTKVTVL
notes: as for B6
B13: Fab VH5-51_IGHD5-18*01>3_IGHJ4*01 G104A & V3-4_IGLJ1*01 (Fab, V domains shown)
VH: EVQLVQSGAEVKKPGESLKISCKGSGYSFTSYWIGWVRQMPGKGLEWMGIIYPGDSDTRYSPSFQGQVTISADKSISTAYLQWSSLKASDTAMYYCARRGYSYAYDYFDYWGQGTLVTVSS
VL: QTVVTQEPSFSVSPGGTVTLTCGLSSGSVSTSYYPSWYQQTPGQAPRTLIYSTNTRSSGVPDRFSGSILGNKAALTITGAQADDESDYYCVLYMGSGISYVFGTGTKVTVL
notes: as for B6
B14: Fab VH5-51_IGHD5-18*01>3_IGHJ4*01 G104M & V3-4_IGLJ1*01 (Fab, V domains shown)
VH: EVQLVQSGAEVKKPGESLKISCKGSGYSFTSYWIGWVRQMPGKGLEWMGIIYPGDSDTRYSPSFQGQVTISADKSISTAYLQWSSLKASDTAMYYCARRGYSYMYDYFDYWGQGTLVTVSS
VL: QTVVTQEPSFSVSPGGTVTLTCGLSSGSVSTSYYPSWYQQTPGQAPRTLIYSTNTRSSGVPDRFSGSILGNKAALTITGAQADDESDYYCVLYMGSGISYVFGTGTKVTVL
notes: as for B6
B15: Fab VH5-51_IGHD5-18*01>3_IGHJ4*01 G104D & V3-4_IGLJ1*01 (Fab, V domains shown)
VH: EVQLVQSGAEVKKPGESLKISCKGSGYSFTSYWIGWVRQMPGKGLEWMGIIYPGDSDTRYSPSFQGQVTISADKSISTAYLQWSSLKASDTAMYYCARRGYSYDYDYFDYWGQGTLVTVSS
VL: QTVVTQEPSFSVSPGGTVTLTCGLSSGSVSTSYYPSWYQQTPGQAPRTLIYSTNTRSSGVPDRFSGSILGNKAALTITGAQADDESDYYCVLYMGSGISYVFGTGTKVTVL
notes: as for B6

Experiments:
[1] = molecular target: T1, Recombinant Human DLL4 (human, UniProt Q9NR61 27-524); assay: ELISA on plate-coated DLL4, Fab at 20 nM (3-fold serial dilution)
T1 construct: Bought recombinant human DLL4 (R&D Systems 1506-D4/CF); also called delta-like protein 4; rHuman DLL4

[2] = molecular target: T1, Recombinant Human DLL4; assay: ELISA on plate-coated DLL4, Fab at 0.74 nM (3-fold serial dilution)
[3] = molecular target: T1, Recombinant Human DLL4; assay: ELISA on plate-coated DLL4, Fab at 2.22 nM (3-fold serial dilution)
[4] = molecular target: T1, Recombinant Human DLL4; assay: ELISA on plate-coated DLL4, Fab at 6.67 nM (3-fold serial dilution)
[5] = molecular target: T1, Recombinant Human DLL4; assay: ECL (MSD) binding assay, Fab on immobilised recombinant human DLL4; Fab concentration not given in the table
[6] = molecular target: T2, Recombinant Human DLL4 (human, UniProt Q9NR61 27-524); assay: ECL (MSD) 96-well plate assay, DLL4 coated at 30 ug/mL, Fab 0.1 uM; signal over blank
T2 construct: Bought recombinant human DLL4 (R&D Systems Cat#1506-D4/CF), coated on the plate; also called delta-like protein 4; rHuman DLL4

[7] = molecular target: T2, Recombinant Human DLL4; assay: ECL (MSD) 96-well plate assay, DLL4 coated at 15 ug/mL, Fab 0.02 uM; signal over blank
[8] = molecular target: T3, rHuman P-Cadherin/Fc Chimera, CF (R&D Systems Cat#861-PC) (human, UniProt P22223 108-654); assay: ECL multispot (MSD) binding assay, antigen spotted on plate, Fab 0.04 uM;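 note: purified Fab incubated 1 h at 20 °C on antigen spots, detected via TAG-labelled antibody, ECL read against each well's blank, with signal-to-blank of at least 4 scored as binder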
T3 construct: Bought recombinant protein; Fc part of the bought chimera not given

[9] = molecular target: T4, Recombinant Human DLL4 (R&D Systems Cat#1506-D4/CF) (human, UniProt Q9NR61 27-524); assay: as above
T4 construct: Bought recombinant protein; also called delta-like protein 4; rHuman DLL4

Binder	ELISA signal [1]	ELISA signal [2]	ELISA signal [3]	ELISA signal [4]	ECL signal [5]	Signal/Noise [6]	Signal/Noise [7]	other results
B1	0.979	0.288	0.608	0.776	9790			
B2	0.863	0.27	0.463	0.739	6020			
B3	0.91	0.263	0.523	0.747	8000			
B4	1.06	0.397	0.755	0.916	12200			
B5	1.05	0.398	0.557	0.916	11500			
B6						5.8	2	
B7						17.6	9.1	
B8						26	11	
B9								ECL signal [8]: 474; ECL signal [9]: 14900
B10						47.8	25.6	
B11						134	72.6	
B12						90.6	39.9	
B13						6.7	2.6	
B14						29.1	12.3	
B15						42.5	23.2	
